From patent US7179464 come the findings set out here.

Assay [1] deals with soluble human IL-5R α (shIL-5R α) (human) (UniProt Q01344). Put plainly: ELISA method 2: purified antibody on plate-coated shIL-5R α, anti-human IgG detection.
Assay [2] shares this target. Description: discussion of the ELISA results; assay not given. For orientation: ELISA stands for enzyme-linked immunosorbent assay.

Sequence of soluble human IL-5R α (shIL-5R α) (human) (Q01344 other isoform, or with tags, fused parts or gaps limits assumed, form in doubt): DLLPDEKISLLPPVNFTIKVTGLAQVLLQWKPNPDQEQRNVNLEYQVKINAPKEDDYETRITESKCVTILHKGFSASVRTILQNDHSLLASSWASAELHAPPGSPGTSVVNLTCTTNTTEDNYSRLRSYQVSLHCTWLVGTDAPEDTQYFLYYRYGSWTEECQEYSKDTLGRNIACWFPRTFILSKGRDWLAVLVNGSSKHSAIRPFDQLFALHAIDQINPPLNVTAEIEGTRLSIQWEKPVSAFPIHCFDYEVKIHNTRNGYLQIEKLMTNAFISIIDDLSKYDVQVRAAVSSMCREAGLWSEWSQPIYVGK

B1: anti-human IL-5R α chain human CDR-grafted antibody KM8397 (antibody, human IgG1, V domains shown)
VH: EVQLVQSGAEVKKPGASVKVSCKASGYTFTSYVIHWVRQAPGQGLEWMGYINPYNDGTKYNERFKGRVTITADTSTSTAYMELSSLRSEDTAVYYCAREGIRYYGLLGDYWGQGTLVTVSS
VL: DIQMTQSPSSLSASVGDRVTITCGTSEDIINYLNWYQQKPGKAPKLLIYHTSRLQSGVPSRFSGSGSGTDFTLTISSLQPEDFATYYCQQGYTLPYTFGQGTKVEIK
Consider B1, for which the reactivity relative to KM1399 (fold of KM1399) in assay [1] came out at 0.5. The activity relative to KM1259 (fold of KM1259) in assay [2] turned out to be 0.5.
